# B1: PGV04 Fab (Fab, V domains shown)
# VH: QVQLVQSGSGVKKPGASVRVSCWTSEDIFERTELIHWVRQAPGQGLEWIGWVKTVTGAVNFGSPDFRQRVSLTRDRDLFTAHMDIRGLTQGDTATYFCARQKFYTGGQGWYFDLWGRGTLIVVSS
# VL: EIVLTQSPGTLSLSPGETASLSCTAASYGHMTWYQKKPGQPPKLLIFATSKRASGIPDRFSGSQFGKQYTLTITRMEPEDFARYYCQQLEFFGQGTRLEIR
# Target: JRFL SOSIP trimer (HIV-1 subtype B, truncated at residue 663), negatively selected (HIV-1 subtype B strain JRFL)
binder,measurement,value
B1,"increase of the melting temperature (Tm) of the JRFL SOSIP-Fab complex over the trimer alone, DSF",3.6 °C
